Experimental data published in US20230126689A1 (GO THERAPEUTICS, published 2023).
Values belong to the binder of their own block, whether it stands above or below them. Ends that are not written are not given here. * marks the point of attachment. αGalNAc = CC(=O)N[C@@H]1[C@@H](O)[C@@H](O)[C@@H](CO)O[C@@H]1*

What was measured:
[1] = biological target: T1, CD44v6 glycopeptide … with O-linked GalNAc on threonine 5 and serine 12 (human, not fully specified (residue 12)); test: hybridoma screening (ELISA, flow cytometry, immunofluorescence)
T1 construct: Synthetic 19-residue glycopeptide made by FMOC synthesis; also called CD44v6-Tn(S + T); Tn-glycosylated CD44v6 glycopeptide
T1 peptide: GYRQT(αGalNAc)PKEDSHSTTGTAAA

[2] = biological target: T1, CD44v6 glycopeptide … with O-linked …; test: BLI (Octet), apparent affinity with avidity factored in
[3] = biological target: T2, CD44v6 peptide glycoform CD44v6-Tn(S) (human, not fully specified (residue 12); also: GalNAc (Tn) on serine only, position not given here); test: BLI (Octet); Octet; Tn(S) glycoform
T2 construct: That the serine is Ser 12 is inferred from the two-site glycopeptide
T2 peptide: GYRQTPKEDSHSTTGTAAA

[4] = biological target: T1, CD44v6 glycopeptide … with O-linked …; test: SPR (Biacore); Biacore, not Octet
Tn-glycosylated MUC1 = biological target: T3, Tn-glycosylated MUC1 (UniProt P15941 138-197, limits assumed, Tn (GalNAc) glycosylated; sites not stated for the material used); test: Biacore (surface plasmon resonance); row MUC1-Tn, column Affinity (Biacore)
T3 construct: also called MUC1-Tn
T3 sequence (P15941 138-197 limits assumed): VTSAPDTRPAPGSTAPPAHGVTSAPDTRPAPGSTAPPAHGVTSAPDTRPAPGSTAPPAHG

B1: 2B2 monoclonal antibody (antibody, V domains shown)
VH: EVQLVESGGGLVKPGGSLKLSCAASGFTFSSYAMSWVRQSPERRLEWVAEISSGGSYTYYPDTVTGRFTISRDNAKNTLYLEMSSLRSEDTAMYYCARTVGEDWYFDVWGAGTTVTVSS
VL: DIQMTQTTSSLSASLGDRVTISCRASQDISHYLNWYQQKPDGAVKLLIYSTSRLHSGVPSRFSGSGSGTDYSLTISNLEQEDIATYFCQQGYTLPFTFGSGTKLEIK
notes: Murine hybridoma antibody
binding result [1]: binds

B2: 1D12 monoclonal antibody (antibody, V domains shown)
VH: DVQLVESGGGLVQPGGSRKLSCAASGFTFSSFGIHWVRQAPEKGLEWVAYISSGSSTIYYADTVKGRFTISRDNPKNTLFLQMTSLRSEDTAMYYCARGSKVVAKSRGYWYFDVWGAGTTVTVSS
VL: DVVVTQTPLFLPVSFGDQVSISCRSSQSLANNYGITYLSWYLHRPGQSPQLLIYGISNRFSGVPDRFSGSGSGTDFTLKISTIKPEDLGMYYCLQGTHQPWTFGGGTKLEIK
notes: Murine hybridoma antibody
binding result [1]: binds

B5: 4C8 monoclonal antibody (antibody, V domains shown)
VH: QVQLQQPGSELVRPGASVKLSCKASGYTFTSYWMHWVKQRPGQGLEWIGNIYPRSGTTNYDGYFKSKATLTVDTSSSTAYMQLSSLTSEDSAVYFCTRSGYDYPFVYWGQGTLVTVSA
VL: QAVVTQESALTTSPGETVTLTCRTSTGAVSIRNYANWVQEKPDHLFTGLIGGTNNRAPGVPARFSGSLIGDKAALTITGAQPEDEAIYFCALLYSNYWVFGGGTKLTVL
notes: Murine hybridoma antibody from Balb/c mice immunised with the KLH-conjugated CD44v6 glycopeptide; It was detected with anti-mouse IgG Fc-gamma, and used as purified mAb or as hybridoma supernatant; also called 4C8 mAb; mAb 4C8
Kd [2]: 7.9 nM
Kd [3]: 6.4 nM
Kd [4]: 128 nM
Kd (Tn-glycosylated MUC1): > 400 nM

The remaining lines, values ahead:

binding result [1]: binds
B3: 18G9 monoclonal antibody (antibody, V domains shown)
VH: DVQLVESGGGLVQPGGSRKLSCAASGFTFSSFGMHWVRQAPEKGLEWVAYISSGSSTIYYADTVKGRFTISRDNPKNTLFLQMTSLRSEDTAMYYCARGSYRAMDYWGQGTSVTVSS
VL: QIVLTQSPALMSASPGEKVTMTCSASSSVNYMFWYQQKPRSSPKPWIYLTSNLASGVPARFSGSGSGTSYSLTISSMEAEDAATYYCQLWSSNPFTFGSGTKLEIK
notes: Murine hybridoma antibody

binding result [1]: binds
B4: 10H4 monoclonal antibody (antibody, V domains shown)
VH: QSLEESGGRLVTPGTPLTLTCTASGFTINTYHMGWFRQAPGKGLQYIGIVSHDVGTYYATWAKGRFTISKTSSTTVDLRMPSPTTEDTATYICARGPGYWTFNLWGQGTLVTVSS
VL: AQVLTQTPASVSAAVGGTVTINCQASQSVYNNNQLSWYQQKPGQPLKQLIYKASTLASGVPSRFKGSGSGSQFTLTISDLECDDAATYFCAGGYKGDIHPFGGGTEVVVK
notes: Rabbit antibody
